B1: 20G8 (antibody, IgG4, V domains shown)
VH: QVQLVQSGAEVKKPGASVKVSCKASGYTFTSYGISWVRQAPGQGLEWMGWISVYNGNTNYAQKLQGRVTMTTDTSTSTAYMEVRSLRSDDTAVYYCARDRVPRIPRTTEAFDIWGRGTMVTVCS
VL: QSVLTQPPSASGTPGQRVTISCSGSSSNIGSYYVYWYQQLPGTAPKLLIYRDNQRPSGVPDRFSGSKSGTSASLAIRGLRSDDEADYYCAAWDDSLSGHWVFGGGTKLTVL
B2: 4B4 IgG1 (antibody, V domains shown)
VH: QVLLIQSGAEVKKPGASVQVSCKASGYTFTNYGVIWVRQAPGQGLEYMGWISAYNGNTNYAQKLQDRVTMTSDTSTTTAYMELRSLRSDDTAVYYCARELGSSFDYWGQGTLVTVSS
VL: SYELTQPPSVSVSPGQTARITCSGDALPKKYAYWYQQKSGQAPVLVIYEDIKRPSGIPERFSGSSSGTMATLTISGAQVEDEADYYCFSTDNSGDHSVFGGGTKLTVL
B3: 1D4 (antibody, IgG4, V domains shown)
VH: QLQLQESGPGLVKPSETLSLTCTVSGGSISSSSYYWGWIRQPPGKGLEWIGSFYYSRSTYYNPSLKSRVTISVDTSKNQFSLKLSSVTAADTAVHYCARGSIAVPDAFDIWGQGTMVTVSS
VL: SYELTQPPSVSVSPGQTASITCSGDKLGDKFACWYQQKPGHSPVLVVYQDNKRPSGIPERFSGSNSGNSATLTISGTQAMDEADYYCQAWDSNTAVFGGGTKLTVL
B4: 4B3 (antibody, IgG4, V domains shown)
VH: QVQLVQSGAEVRKSGASVKVSCKASGYSFTTYDINWVRQATGQGLEWMGWMNPNSGYTDYAQKFQGRVTLTRNMSIDTAYMELSSLRSEDTAVYYCARAYYYDSSAYYLFDYWGQGTLVTVSS
VL: DIQMTQSPSSLSASVGDRVTITCRASQGISNYLAWFQQKPGKAPKSLIYAASSLQSGVPSKFSGSGSGTDFTLTISSLQPEDFATYFCQQYISYPLTFGGGTKVEI
B5: 4B4 (antibody, IgG4, V domains shown)
VH: QVLLIQSGAEVKKPGASVQVSCKASGYTFTNYGVIWVRQAPGQGLEYMGWISAYNGNTNYAQKLQDRVTMTSDTSTTTAYMELRSLRSDDTAVYYCARELGSSFDYWGQGTLVTVSS
VL: SYELTQPPSVSVSPGQTARITCSGDALPKKYAYWYQQKSGQAPVLVIYEDIKRPSGIPERFSGSSSGTMATLTISGAQVEDEADYYCFSTDNSGDHSVFGGGTKLTVL
B6: 9G8 (antibody, IgG4, V domains shown)
VH: QLQLQESGPGLVKPSETLSLSCTVSGGSISSSSSYWGLIRQPPGKGLEWIGSIYYSGSTYYSPSLKSRVSISVDTSKNQFSLKLSSVTAADTAVYFCARQGYGGHPDVFDIWGQGTMVTVSS
VL: SSELTQSPSVSVSPGQTARITCSGDKLGDVYVCWYQQKTGQSPVLVIYEDTKRPSGIPERFSGSNSGNTATLTISGTQVMDEADYYCQAWDSTTAVIFGGGTKLTVL
B7: 2H10 (antibody, IgG4, V domains shown)
VH: QVQLVESGGGVVQPGRSLRLSCAASGFTFSRHGMHWVRQAPGKGLEWVAVVWFDGSNIYYADSVKGRFTISRDNSKNTLYLQMNSLRAEDTAMYYCARDSRIAAADYWGQGTLVTVSS
VL: SYELTQPPSVSVSPGQTVSITCSGDKLGDKYVCWYQQKPGQSPVLVIYQESKRPSGIPERFSGSSSGNTATLTISGTQAMDEADYYCQTWDSSLVVFGGGTKLTVL
B8: 12A1 (antibody, IgG4, V domains shown)
VH: QVQLVQSGAEVKRPGASVKVSCKASGYTFTSYGITWVRQAPGQGLEYMGWISTYNGNTDYAQKFQGRVTMTADISTSTAYMELRSLRSDDTAVYYCARERGSYFDYWGQGTLVTVSS
VL: SYELTQPPSVSVSPGQTARITCSGDTLPKKYAYWYQQKSGQAPVLVIYEDIKRPSGIPERFSGSSSGTMATLTISGAQVEDEADYYCFSTDSGGNHKFGGGTKLTVL
B9: 3A7 (antibody, IgG4, V domains shown)
VH: EVQVVESGGGLVQPGGSLRLSCEASGFTFSNYWMIWVRQAPGKGLEWVASIKEDGSEKYYVDSVKGRFTISRDNAKSSLYLQMNSLRAEDTAVYYCVRDWELRGHYYYHGMDVWGQGTTVTVSS
VL: DIQMTQSPSSLSASVGDRVTITCRASLDIRNDLGWFLQKPGKAPKRLIYAASSLQSGVPSRFSGSGSGTEFTLTINSLQPEDFATYYCLQHRNYPFTFGPGTKVDFK
B10: 17F3 (antibody, IgG2, V domains shown)
VH: QVQLVQSGAEVKKPGASVKVSCKASGYTFTNYGISWVRQAPGQGLEWMGWINAYNGNTNYAQNLQGRVTMTTDTSTNTAYMELRSLRSDDTAVYYCARVAPAAFFDYWDQGTLVTVSS
VL: SYELTQPPSVSVSPGQTASITCSGDKLGDKYVCWYQQKPGQSPVLVIYQDNKRPSGIPERFSGSNSGNTATLIISGTQAMDEADYYCQAWDSSTVFGGGTKLTVL

For the first assay, the target named is DLL4 extracellular domain (R&D systems, catalog #1506-D4/CF) (UniProt Q9NR61). The assay is described as follows: cell-based or functional assay.
DLL4 extracellular domain (R&D systems, catalog #1506-D4/CF), sequence (Q9NR61 27-529 limits assumed): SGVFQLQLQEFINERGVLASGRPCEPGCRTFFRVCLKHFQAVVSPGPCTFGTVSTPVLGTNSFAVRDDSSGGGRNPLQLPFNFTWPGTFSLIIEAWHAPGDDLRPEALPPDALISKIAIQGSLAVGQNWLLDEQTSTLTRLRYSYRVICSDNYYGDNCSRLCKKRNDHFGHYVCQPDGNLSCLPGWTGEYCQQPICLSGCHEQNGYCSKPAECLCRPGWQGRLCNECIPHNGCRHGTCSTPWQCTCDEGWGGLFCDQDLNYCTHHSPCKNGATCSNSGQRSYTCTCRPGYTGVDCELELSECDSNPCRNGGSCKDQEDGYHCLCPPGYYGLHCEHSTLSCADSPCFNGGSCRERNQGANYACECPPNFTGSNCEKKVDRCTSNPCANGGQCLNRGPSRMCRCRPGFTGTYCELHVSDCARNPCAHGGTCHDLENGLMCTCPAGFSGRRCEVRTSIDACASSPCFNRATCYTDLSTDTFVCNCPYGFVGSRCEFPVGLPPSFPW
Take B1: the % inhibition 1 µg/ml, AVERAGE (HUVEC proliferation on coated DLL4) came out at 85%; the % inhibition 1 µg/ml, N = 1 (HUVEC proliferation on coated DLL4) is 94%; the % inhibition 1 µg/ml, N = 2 (HUVEC proliferation on coated DLL4) was 75%; the % inhibition 10 µg/ml, AVERAGE (HUVEC proliferation on coated DLL4) stood at 98%. The % inhibition 10 µg/ml, N = 1 (HUVEC proliferation on coated DLL4) was 103% and the % inhibition 10 µg/ml, N = 2 (HUVEC proliferation on coated DLL4) came out at 93%.

The target of the next assay is full length cynomolgus monkey DLL4 (cynomolgus monkey). The assay is described as follows: FACS competition vs Notch1/Fc, HEK293 cells with cynomolgus DLL4.
B2: the IC50 worked out at 0.5 nM.

The next assay has the same target. The assay is described as follows: FACS titration, HEK293 cells with cynomolgus DLL4.
Consider B2, for which the Kd was 0.081 nM.

The target is the same in another assay. The assay is described as follows: FMAT, hybridoma supernatant, 293T cells with cynomolgus DLL4.
Consider B3, for which the Count stood at 103, the FL1 was 11700 and the FL1 x count turned out to be 1.21e+06.
In turn, B4 registered a Count of 97, an FL1 of 12600 and an FL1 x count of 1.22e+06.
B5 registered a Count of 117, an FL1 of 12300 and an FL1 x count of 1.04e+09.
Taken in the same sequence, the figures for B6 were 120, 11700 and 1.41e+06.
Taken in the same sequence, the figures for B1 were 128, 11200 and 1.44e+06.
With B7, the Count was 103, the FL1 is 13100 and the FL1 x count was found to be 1.35e+06.
In the case of B8, the Count was 106, the FL1 was found to be 12900 and the FL1 x count worked out at 1.37e+06.
Take B9: the Count was determined as 121, the FL1 came out at 9960 and the FL1 x count is 1.2e+06.
In the case of B10, the Count came to 120, the FL1 turned out to be 10700 and the FL1 x count stood at 1.29e+06.

These data come from patent publication US20100196385A1.
